Results on 42 molecules are retold here after US20180280496A1.

Usually IC50 stands for the midpoint of a concentration-inhibition curve. Low readings indicate higher potency, high ones lower potency.

Values joined by “and” are separate entries in the source; they are usually repeats but may differ in a detail not shown here. Equal values may be shown once. Read-outs that look alike come from different tables or passages of the source.

The target in assay [1] is T1, H-2Kb (mouse), P01901.
T1 chain: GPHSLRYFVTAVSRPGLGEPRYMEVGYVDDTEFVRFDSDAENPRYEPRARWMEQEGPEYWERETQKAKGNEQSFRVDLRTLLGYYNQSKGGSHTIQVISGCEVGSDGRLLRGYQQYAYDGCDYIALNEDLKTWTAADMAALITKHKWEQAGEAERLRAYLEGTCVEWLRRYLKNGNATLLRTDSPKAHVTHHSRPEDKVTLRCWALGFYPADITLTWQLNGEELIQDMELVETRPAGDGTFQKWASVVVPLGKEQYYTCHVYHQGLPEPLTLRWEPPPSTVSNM
Nature of the assay: ProImmune REVEAL MHC class I-peptide binding assay.

Assay [2] concerns the target B*07:02 (human), P01889. Nature of the assay: ProImmune REVEAL MHC class I-peptide binding assay.
Assay [3] deals with A*02:01 (human), P04439. Nature of the assay: ProImmune REVEAL MHC class I-peptide binding assay.
The target of assay [4] is A*11:01 (human), P04439. The note with it: modification not given.
The target in assay [5] is A*11:01 (human), P04439. Nature of the assay: ProImmune REVEAL MHC class I-peptide binding assay.
Assay [6] addresses A*24:02 (human), P04439. Nature of the assay: ProImmune REVEAL MHC class I-peptide binding assay.
Assay [7] concerns the target A*11:01 (human), P04439. Particulars: modification not given. The source holds these as a separate data set.
The target of assay [8] is A*02:01 (human), P04439. Nature of the assay: ProImmune REVEAL MHC class I-peptide binding assay, A*02:01.
For assay [9], the target named is A*24:02 (human), P04439. The note with it: modification not given.
The target in assay [10] is B*27:05 (human), P01889. Briefly: ProImmune REVEAL MHC class I-peptide binding assay.
Assay [11] deals with A*24:02 (human), P04439. The note with it: modification not given. The source holds these as a separate data set.
The target of assay [12] is A*11:01 (human), P04439. Particulars: modification not given. The source holds these as a separate data set.
Assay [13] has as its target A*11:01 (human), P04439. Particulars: modification not given. This is another data set of the same source.
In assay [14] the target is A*02:01 (human), P04439. Particulars: chains peptide; modification not given.
Assay [15] deals with A*02:01 (human), P04439. Particulars: chains peptide; modification not given. This is another data set of the same source.

Take QQRVFKEKV (modifications not checked): the REVEAL score at 0 h in assay [1] came to 63.4.

As for YGLNTFTNM (modifications not checked), in [1], the REVEAL score at 0 h turned out to be 75.4.

Regarding LMYFHRRDL (modifications not checked), the REVEAL score at 0 h in assay [2] came to 120; in assay [3], 97.8; in [1], 54.9.

Regarding MGEAAAIFM (modifications not checked), the REVEAL score at 0 h in assay [3] stood at 50.6.

For the molecule VTFKTAHAK [SEQ ID NO: 309 serotype 1], in [4], the IC50 turned out to be 16 nM.

In [5], TVWFVPSIK (modifications not checked) had an REVEAL score at 0 h of 92.2.

YFHRRDLRL (modifications not checked) had an REVEAL score at 0 h in [6] of 87.5.

Regarding ATFTMRLLS (modifications not checked), the REVEAL score at 0 h in assay [5] came to 58.5; in [1], 55.6.

As to CHATFTMRL (modifications not checked), the results for the REVEAL score at 0 h in [1] and in [6] were 60.3 and 75.9, respectively.

For VTFKNPHAK [SEQ ID NO: 309 serotype 2], in assay [7], the IC50 was found to be 17 nM.

Take TALTGATEI (modifications not checked): the REVEAL Score in [8] was 0.9.

In assay [3], IVDLMCHAT (modifications not checked) registered an REVEAL score at 0 h of 62.7.

In the case of SYAMCLNTF [SEQ ID NO: 308 serotype 3], the IC50 in assay [9] came out at 540 nM.

ARGYISTRV (modifications not checked) returned an REVEAL score at 0 h in assay [10] of 125.

In [3], KLTYQNKVV (modifications not checked) returned an REVEAL score at 0 h of 92.3.

VGTYGLNTF (modifications not checked) gave an REVEAL score at 0 h in assay [6] of 96.

Molecule GLYGNGVVT (modifications not checked) gave an REVEAL score at 0 h in [3] of 87.7.

Molecule RRGDLPVWL (modifications not checked) registered an REVEAL score at 0 h in assay [10] of 145.

Turning to FKPGTSGSP (modifications not checked), the REVEAL score at 0 h in assay [2] was 50.4; in assay [1] it was 45.7.

In [3], AISGDDCVV (modifications not checked) had an REVEAL score at 0 h of 91.1.

With FKLTYQNKV (modifications not checked), the REVEAL score at 0 h in [10] was determined as 53.7.

SYSMCTGKF [SEQ ID NO: 308 serotype 2] returned a concentration for half-maximal inhibition (IC50) in assay [11] of 115 nM.

In assay [6], HWTEAKMLL (modifications not checked) showed an REVEAL score at 0 h of 103.

With LMRRGDLPV (modifications not checked), the REVEAL score at 0 h in assay [2] amounted to 179; in assay [3], 82.3.

In [3], MWHVTRGAV (modifications not checked) came in with an REVEAL score at 0 h of 62.7.

Turning to VTFKVPHAK [SEQ ID NO: 309 serotype 4], the IC50 in assay [12] was found to be 14 nM.

Consider LAPTRVVAA (modifications not checked), for which the REVEAL score at 0 h in [1] worked out at 102.

In the case of VTFKNAHAK [SEQ ID NO: 309 serotype 3], the IC50 in assay [13] turned out to be 17 nM.

Molecule PERVILAGP (modifications not checked) had an REVEAL score at 0 h in assay [2] of 56.1.

On to KQWFLDLPL, for which the REVEAL Score in assay [8] was 86. Moreover, the half-maximal inhibitory concentration (IC50) in [14] was determined as 11 nM.

Consider LSRNSTHEM (modifications not checked), for which the REVEAL score at 0 h was found to be 124 in assay [2] and 51.1 in assay [1].

Regarding GEAAAIFMT (modifications not checked), the REVEAL score at 0 h in [3] was 74.3; in assay [5] it was 50.3; in [6], 58.9.

VVAAEMEEA (modifications not checked) returned an REVEAL score at 0 h in [3] of 92.2.

Molecule RQWFFDLPL came in with an REVEAL Score in [8] of 80.5. Moreover, the IC50 in [15] is 12 nM and 39 nM.

With SRNSTHEMY (modifications not checked), the REVEAL score at 0 h in assay [2] was found to be 52.

As for PLSRNSTHE (modifications not checked), the REVEAL score at 0 h in assay [2] amounted to 65.

As for LMCHATFTM (modifications not checked), the REVEAL score at 0 h turned out to be 72.9 in assay [3], 98.2 in assay [10], 59 in [1] and 99.5 in [6].

The molecule GTYGLNTFT (modifications not checked) gave an REVEAL score at 0 h in [5] of 63.6.

Regarding IPERSWNSG (modifications not checked), in [2], the REVEAL score at 0 h amounted to 45.2.

Turning to WTEAKMLLD (modifications not checked), in [6], the REVEAL score at 0 h was determined as 94.7.

The molecule ISGDDCVVK (modifications not checked) registered an REVEAL score at 0 h in [5] of 88.7.

Consider HATFTMRLL (modifications not checked), for which the REVEAL score at 0 h in assay [1] amounted to 69.5.
